We go through one molecule from US20040146507A1.

In this assay the target is T1, rhesus CD11a (rhesus) (UniProt H9Z8N3).
T1 sequence: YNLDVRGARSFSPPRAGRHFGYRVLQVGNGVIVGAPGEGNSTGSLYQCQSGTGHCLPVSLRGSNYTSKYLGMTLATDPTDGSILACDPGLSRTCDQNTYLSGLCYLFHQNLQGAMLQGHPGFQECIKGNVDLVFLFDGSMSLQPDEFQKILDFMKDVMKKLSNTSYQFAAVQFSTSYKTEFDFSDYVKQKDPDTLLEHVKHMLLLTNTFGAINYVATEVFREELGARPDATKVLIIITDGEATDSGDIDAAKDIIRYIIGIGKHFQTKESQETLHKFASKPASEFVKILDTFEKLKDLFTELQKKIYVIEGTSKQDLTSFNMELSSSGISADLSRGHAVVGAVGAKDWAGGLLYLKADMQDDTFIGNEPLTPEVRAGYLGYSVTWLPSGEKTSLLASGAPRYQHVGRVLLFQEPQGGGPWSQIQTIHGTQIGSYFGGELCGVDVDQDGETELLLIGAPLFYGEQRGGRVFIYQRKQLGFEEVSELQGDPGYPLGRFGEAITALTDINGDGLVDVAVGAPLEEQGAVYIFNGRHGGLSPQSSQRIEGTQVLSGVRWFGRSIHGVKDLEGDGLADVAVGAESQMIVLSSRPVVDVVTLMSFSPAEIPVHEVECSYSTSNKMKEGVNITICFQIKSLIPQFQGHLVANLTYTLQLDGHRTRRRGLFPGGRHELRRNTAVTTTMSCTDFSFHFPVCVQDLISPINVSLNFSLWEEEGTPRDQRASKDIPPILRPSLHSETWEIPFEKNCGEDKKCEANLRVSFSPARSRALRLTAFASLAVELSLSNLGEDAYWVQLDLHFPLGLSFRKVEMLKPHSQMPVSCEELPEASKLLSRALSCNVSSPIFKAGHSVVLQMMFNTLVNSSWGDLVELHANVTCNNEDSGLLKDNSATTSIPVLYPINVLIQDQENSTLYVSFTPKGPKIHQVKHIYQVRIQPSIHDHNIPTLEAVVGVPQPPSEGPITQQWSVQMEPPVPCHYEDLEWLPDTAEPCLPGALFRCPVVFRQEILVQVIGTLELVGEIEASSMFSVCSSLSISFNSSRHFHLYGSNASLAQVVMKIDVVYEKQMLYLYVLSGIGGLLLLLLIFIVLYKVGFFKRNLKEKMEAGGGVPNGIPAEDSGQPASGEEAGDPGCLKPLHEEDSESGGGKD
Description: rhesus PBL binding.

B1: HuIgG1 mutant SerL52Ala (antibody, V domains shown)
VH: EVQLVESGGGLVQPGGSLRLSCAASGYSFTGHWMNWVRQAPGKGLEWVGMIHPSDSETRYNQKFKDRFTISVDKSKNTLYLQMNSLRAEDTAVYYCARGIYFYGTTYFDYWGQGTLVTVSS
VL: DIQMTQSPSSLSASVGDRVTITCRASKTISKYLAWYQQKPGKAPKLLIYSGATLQSGVPSRFSGSGSGTDFTLTISSLQPEDFATYYCQQHNEYPLTFGQGTKVEIKR
In turn, B1 displayed a Var.EC50/HuIgG1 EC50 of 13.3.
